Measured values published in patent US20060110789.

T1: diketide-ACP2(2) (DEBS ACP2 with its natural C-terminal linker, loaded with diketide), Q03131
T1 chain: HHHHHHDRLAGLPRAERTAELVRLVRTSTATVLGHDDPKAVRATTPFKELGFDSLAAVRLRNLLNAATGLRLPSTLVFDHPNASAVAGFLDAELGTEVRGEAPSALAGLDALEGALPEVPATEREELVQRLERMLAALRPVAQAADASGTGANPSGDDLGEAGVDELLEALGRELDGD

T2: diketide-ACP2(4) (DEBS ACP2 with the C-terminal linker of module 4, loaded with diketide), Q03131
T2 chain: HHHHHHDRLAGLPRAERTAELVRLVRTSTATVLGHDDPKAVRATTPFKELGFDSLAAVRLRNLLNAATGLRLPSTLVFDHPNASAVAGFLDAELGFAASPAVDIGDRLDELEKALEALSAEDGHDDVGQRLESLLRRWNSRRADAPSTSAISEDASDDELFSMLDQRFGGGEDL

T3: diketide-ACP4(4) (DEBS ACP4 with its natural C-terminal linker, loaded with diketide), Q03132
T3 chain: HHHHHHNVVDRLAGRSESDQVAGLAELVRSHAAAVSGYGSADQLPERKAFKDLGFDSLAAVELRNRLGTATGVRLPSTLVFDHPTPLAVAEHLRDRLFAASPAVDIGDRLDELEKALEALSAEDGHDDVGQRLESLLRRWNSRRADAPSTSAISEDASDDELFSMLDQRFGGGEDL

B1: M3+TE (module 3 of DEBS with its own N-terminal linker, fused to thioesterase) (protein)
chain: VTDSEKVAEYLRRATLDLRAARQRIRELESIAIVSMACRLPGGVNTPQRLWELLREGGETLSGFPTDRGWDLARLHHPDPDNPGTSYVDKGGFLDDAAGFDAEFFGVSPREAAAMDPQQRLLLETSWELVENAGIDPHSLRGTATGVFLGVAKFGYGEDTAAAEDVEGYSVTGVAPAVASGRISYTMGLEGPSISVDTACSSSLVALHLAVESLRKGESSMAVVGGAAVMATPGVFVDFSRQRALAADGRSKAFGAGADGFGFSEGVTLVLLERLSEARRNGHEVLAVVRGSALNQDGASNGLSAPSGPAQRRVIRQALESCGLEPGDVDAVEAHGTGTALGDPIEANALLDTYGRDRDADRPLWLGSVKSNIGHTQAAAGVTGLLKVVLALRNGELPATLHVEEPTPHVDWSSGGVALLAGNQPWRRGERTRRARVSAFGISGTNAHVIVEEAPEREHRETTAHDGRPVPLVVSARTTAALRAQAAQIAELLERPDADLAGVGLGLATTRARHEHRAAVVASTREEAVRGLREIAAGAATADAVVEGVTEVDGRNVVFLFPGQGSQWAGMGAELLSSSPVFAGKIRACDESMAPMQDWKVSDVLRQAPGAPGLDRVDVVQPVLFAVMVSLAELWRSYGVEPAAVVGHSQGEIAAAHVAGALTLEDAAKLVVGRSRLMRSLSGEGGMAAVALGEAAVRERLRPWQDRLSVAAVNGPRSVVVSGEPGALRAFSEDCAAEGIRVRDIDVDYASHSPQIERVREELLETTGDIAPRPARVTFHSTVESRSMDGTELDARYWYRNLRETVRFADAVTRLAESGYDAFIEVSPHPVVVQAVEEAVEEADGAEDAVVVGSLHRDGGDLSAFLRSMATAHVSGVDIRWDVALPGAAPFALPTYPFQRKRYWLQPAAPAAASDELAYRVSWTPIEKPESGNLDGDWLVVTPLISPEWTEMLCEAINANGGRALRCEVDTSASRTEMAQAVAQAGTGFRGVLSLLSSDESACRPGVPAGAVGLLTLVQALGDAGVDAPVWCLTQGAVRTPADDDLARPAQTTAHGFAQVAGLELPGRWGGVVDLPESVDDAALRLLVAVLRGGGRAEDHLAVRDGRLHGRRVVRASLPQSGSRSWTPHGTVLVTGAASPVGDQLVRWLADRGAERLVLAGACPGDDLLAAVEEAGASAVVCAQDAAALREALGDEPVTALVHAGTLTNFGSISEVAPEEFAETIAAKTALLAVLDEVLGDRAVEREVYCSSVAGIWGGAGMAAYAAGSAYLDALAEHHRARGRSCTSVAWTPWALPGGAVDDGYLRERGLRSLSADRAMRTWERVLAAGPVSVAVADVDWPVLSEGFAATRPTALFAELAGRGGQAEAEPDSGPTGEPAQRLAGLSPDEQQENLLELVANAVAEVLGHESAAEINVRRAFSELGLDSLNAMALRKRLSASTGLRLPASLVFDHPTVTALAQHLRICCAGTAAISGPHEFTRLAGALRGIAPVRAVPQPGYEEGEPLPSSMAAVAAVQADAVIRTQGDKPFVVAGHSAGALMAYALATELLDRGHPPRGVVLIDVYPPGHQDAMNAWLEELTATLFDRETVRMDDTRLTALGAYDRLTGQWRPRETGLPTLLVSAGEPMGPWPDDSWKPTWPFEHDTVAVPGDHFTMVQEHADAIARHIDAWHHHHHH
B2: (5)M3+TE (module 3 of DEBS with the N-terminal linker of module 5, fused to thioesterase) (protein)
chain: MSGDNGMTEEKLRRYLKRTVTELDSVTARLREVEHRAGIAIVSMACRLPGGVNTPQRLWELLREGGETLSGFPTDRGWDLARLHHPDPDNPGTSYVDKGGFLDDAAGFDAEFFGVSPREAAAMDPQQRLLLETSWELVENAGIDPHSLRGTATGVFLGVAKFGYGEDTAAAEDVEGYSVTGVAPAVASGRISYTMGLEGPSISVDTACSSSLVALHLAVESLRKGESSMAVVGGAAVMATPGVFVDFSRQRALAADGRSKAFGAGADGFGFSEGVTLVLLERLSEARRNGHEVLAVVRGSALNQDGASNGLSAPSGPAQRRVIRQALESCGLEPGDVDAVEAHGTGTALGDPIEANALLDTYGRDRDADRPLWLGSVKSNIGHTQAAAGVTGLLKVVLALRNGELPATLHVEEPTPHVDWSSGGVALLAGNQPWRRGERTRRARVSAFGISGTNAHVIVEEAPEREHRETTAHDGRPVPLVVSARTTAALRAQAAQIAELLERPDADLAGVGLGLATTRARHEHRAAVVASTREEAVRGLREIAAGAATADAVVEGVTEVDGRNVVFLFPGQGSQWAGMGAELLSSSPVFAGKIRACDESMAPMQDWKVSDVLRQAPGAPGLDRVDVVQPVLFAVMVSLAELWRSYGVEPAAVVGHSQGEIAAAHVAGALTLEDAAKLVVGRSRLMRSLSGEGGMAAVALGEAAVRERLRPWQDRLSVAAVNGPRSVVVSGEPGALRAFSEDCAAEGIRVRDIDVDYASHSPQIERVREELLETTGDIAPRPARVTFHSTVESRSMDGTELDARYWYRNLRETVRFADAVTRLAESGYDAFIEVSPHPVVVQAVEEAVEEADGAEDAVVVGSLHRDGGDLSAFLRSMATAHVSGVDIRWDVALPGAAPFALPTYPFQRKRYWLQPAAPAAASDELAYRVSWTPIEKPESGNLDGDWLVVTPLISPEWTEMLCEAINANGGRALRCEVDTSASRTEMAQAVAQAGTGFRGVLSLLSSDESACRPGVPAGAVGLLTLVQALGDAGVDAPVWCLTQGAVRTPADDDLARPAQTTAHGFAQVAGLELPGRWGGVVDLPESVDDAALRLLVAVLRGGGRAEDHLAVRDGRLHGRRVVRASLPQSGSRSWTPHGTVLVTGAASPVGDQLVRWLADRGAERLVLAGACPGDDLLAAVEEAGASAVVCAQDAAALREALGDEPVTALVHAGTLTNFGSISEVAPEEFAETIAAKTALLAVLDEVLGDRAVEREVYCSSVAGIWGGAGMAAYAAGSAYLDALAEHHRARGRSCTSVAWTPWALPGGAVDDGYLRERGLRSLSADRAMRTWERVLAAGPVSVAVADVDWPVLSEGFAATRPTALFAELAGRGGQAEAEPDSGPTGEPAQRLAGLSPDEQQENLLELVANAVAEVLGHESAAEINVRRAFSELGLDSLNAMALRKRLSASTGLRLPASLVFDHPTVTALAQHLRICCAGTAAISGPHEFTRLAGALRGIAPVRAVPQPGYEEGEPLPSSMAAVAAVQADAVIRTQGDKPFVVAGHSAGALMAYALATELLDRGHPPRGVVLIDVYPPGHQDAMNAWLEELTATLFDRETVRMDDTRLTALGAYDRLTGQWRPRETGLPTLLVSAGEPMGPWPDDSWKPTWPFEHDTVAVPGDHFTMVQEHADAIARHIDAWHHHHHH

Columns and labels:
[1] = target: T1, diketide-ACP2(2) (DEBS ACP2 with its …)
[2] = target: T2, diketide-ACP2(4) (DEBS ACP2 with the …)
[3] = target: T3, diketide-ACP4(4) (DEBS ACP4 with its …)

| Protein | k60 µM (overall rate of product formation at 60 µM substrate) [1] | kcat/KM [1] | triketide lactone formation at 20 µM substrate (FIG. 27 A) [1] | kcat/KM, fold decrease against the matched reaction (FIG. 27 B) [2] | triketide lactone formation at 20 µM substrate (FIG. 27 B) [2] | triketide lactone formation at 20 µM substrate (FIG. 27 D) [3] | KM of transfer and elongation, fold increase against the natural linker pair (diketide-ACP2(2) with (3)M3+TE) [2] | kcat/KM [2] | kcat/KM, fold decrease against the matched reaction (FIG. 27 C) [3] | triketide lactone formation at 20 µM substrate (FIG. 27 C) [3] |
| --- | --- | --- | --- | --- | --- | --- | --- | --- | --- | --- |
| B1 | 1.4 min- | 390 min⁻¹ mM⁻¹ | transfer of diketide from the donor ACP to the acceptor module occurred at 20 µM substrate concentration | fell approximately 3-5 fold and 80-200 fold, respectively | transfer of diketide from the donor ACP to the acceptor module occurred at 20 µM substrate concentration | no product was detected at the same substrate concentrations | – | – | – | – |
| B2 | – | – | – | – | – | – | increases the KM for the ACP2-module 3 reaction by approximately 7-fold | the kcat/KM value decreases to 56 min^-1mM^-1 | fell approximately 3-5 fold and 80-200 fold, respectively | transfer of diketide from the donor ACP to the acceptor module occurred at 20 µM substrate concentration |
